According to paper PMC7695563:

Biological target: MG1113, IgG4 monoclonal anti-tissue factor pathway inhibitor (TFPI) antibody
Test: SPR

Which Kd does the source give for “TFPI-α (tissue factor pathway inhibitor alpha) (from UniProt P10646-1 29-304) (natural protein)” here?
The Kd was 0.0467 nM.

And the koff?
The koff was 0.000131 s⁻¹.

And the kon?
Its kon is 2.82e+06 M⁻¹ s⁻¹.
